Data from patent publication US6716811B1, “Compounds having affinity for the granulocyte-colony stimulating factor receptor (G-CSFR) and associated uses” (Affymax, Inc., priority 2000, dated 2004).
Where a SMILES comes first, the peptide text is derived from it. Where no end group is shown, it is not given here. MBP = maltose binding protein

Experiments:
G-CSFR [1] = target: T1, G-CSFR (Homo sapiens, UniProt Q99062); experiment: Ba/F3 G-CSFR reporter cell (fos promoter/luciferase) assay; assay type: cell-based; design: expression vectors encoding the full length human G-CSFR; expressed in transfected cells; host or cells: murine IL-3 dependent Ba/F3 cells
T1 sequence (Q99062 25-836): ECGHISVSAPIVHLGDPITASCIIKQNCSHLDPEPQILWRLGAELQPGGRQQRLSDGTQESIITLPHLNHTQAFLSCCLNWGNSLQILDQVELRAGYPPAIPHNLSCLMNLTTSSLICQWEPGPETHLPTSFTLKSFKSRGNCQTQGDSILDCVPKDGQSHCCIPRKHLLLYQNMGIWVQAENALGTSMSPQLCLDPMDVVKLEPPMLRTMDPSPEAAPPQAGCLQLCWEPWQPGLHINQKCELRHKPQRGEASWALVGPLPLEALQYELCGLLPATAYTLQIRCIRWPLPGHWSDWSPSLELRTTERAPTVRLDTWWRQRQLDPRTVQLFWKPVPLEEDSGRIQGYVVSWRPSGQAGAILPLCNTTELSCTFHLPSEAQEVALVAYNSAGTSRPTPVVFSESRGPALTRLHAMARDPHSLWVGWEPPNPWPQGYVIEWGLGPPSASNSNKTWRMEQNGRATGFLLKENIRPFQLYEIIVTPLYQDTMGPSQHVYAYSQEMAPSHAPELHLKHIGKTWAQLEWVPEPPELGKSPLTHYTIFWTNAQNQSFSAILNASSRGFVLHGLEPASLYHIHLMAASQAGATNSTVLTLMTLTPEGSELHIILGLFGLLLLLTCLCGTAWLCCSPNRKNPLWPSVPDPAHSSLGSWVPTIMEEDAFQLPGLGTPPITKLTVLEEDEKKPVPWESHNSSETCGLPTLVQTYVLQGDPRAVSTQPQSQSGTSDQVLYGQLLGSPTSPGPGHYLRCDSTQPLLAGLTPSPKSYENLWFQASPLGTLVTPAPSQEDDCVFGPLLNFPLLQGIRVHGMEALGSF
Protocol: (§1) The bioactivity of selected peptides of the invention was measured in cell-based assays. […] Murine IL-3 dependent Ba/F3 cells were co-transfected with expression vectors encoding the full length human G-CSFR and a luciferase reporter gene controlled by the fos promoter.
Reporter cell assays were performed on the above cell line using peptides of the invention. The cells were maintained in complete RPMI-164Q media containing 10% fetal calf serum, 2 mM L-glutamine, 1X antibiotic-antimycotic solution (Life Technologies), and 10% WEHI-3 conditioned media (source of murine IL-3). For reporter assays, cells were starved overnight in medium which lacks WEHI-3 to reduce luciferase expression to background levels. The cells were then washed twice in PBS, resuspended in media which lacks WEHI-3 conditioned media, and added to wells of a 96-well microtiter plate containing dilutions of peptide or G-CSF at 5×10^4 cells/well. Plates were incubated for 2 hours at 37° C. in a humidified 5% CO2 incubator and luciferase activity was measured by the addition of luciferin (LucLite—Packard Biosciences) to each well. The plates were read in a TopCount (Wallac) microtiter plate luminometer.
To measure the ability of selected peptides of the invention to block G-CSF mediated receptor activation, dilutions of peptide were combined with Ba/F3 G-CSFR reporter cells as described above. After a 30-minute incubation at 37° C., G-CSF was added to each well. The cells were incubated for 2 hours at 37° C. and the amount of luciferase produced was measured as described above.
Ligand mediated G-CSF receptor activation in these cells results in the expression of luciferase, providing a detectable biological signal.
A biosassay was used to measure the potency of AF15846 and other possible G-CSF receptor antagonists. This bioassay utilizes a Ba/F3 cell line containing the rhGCSF receptor and a c-fos promoter/luciferase gene construct (Ba/F3/rhGCSF-R/pFos-1cf). Competent binding of a ligand to the receptor results in expression of lucifierase as the biological readout.

NFS-60 cells = experiment: Cell-based assays using NFS-60 cells; design: species or system Murine
[2] = Stability in cell culture medium (NFS-60-conditioned medium); assay type: in vitro ADME; details: overnight incubation in NFS-60-conditioned medium
Parental Ba/F3 cells = experiment: Proliferation of parental Ba/F3 cells; assay type: cell-based, Murine
[3] = target: T2, human thrombopoietin receptor (Homo sapiens, UniProt P40238); experiment: Proliferation of Ba/F3 cells expressing the human thrombopoietin receptor; assay type: cell-based
T2 construct: expressed in transfected cells; host or cells: Ba/F3 cells
T2 sequence (P40238 26-635): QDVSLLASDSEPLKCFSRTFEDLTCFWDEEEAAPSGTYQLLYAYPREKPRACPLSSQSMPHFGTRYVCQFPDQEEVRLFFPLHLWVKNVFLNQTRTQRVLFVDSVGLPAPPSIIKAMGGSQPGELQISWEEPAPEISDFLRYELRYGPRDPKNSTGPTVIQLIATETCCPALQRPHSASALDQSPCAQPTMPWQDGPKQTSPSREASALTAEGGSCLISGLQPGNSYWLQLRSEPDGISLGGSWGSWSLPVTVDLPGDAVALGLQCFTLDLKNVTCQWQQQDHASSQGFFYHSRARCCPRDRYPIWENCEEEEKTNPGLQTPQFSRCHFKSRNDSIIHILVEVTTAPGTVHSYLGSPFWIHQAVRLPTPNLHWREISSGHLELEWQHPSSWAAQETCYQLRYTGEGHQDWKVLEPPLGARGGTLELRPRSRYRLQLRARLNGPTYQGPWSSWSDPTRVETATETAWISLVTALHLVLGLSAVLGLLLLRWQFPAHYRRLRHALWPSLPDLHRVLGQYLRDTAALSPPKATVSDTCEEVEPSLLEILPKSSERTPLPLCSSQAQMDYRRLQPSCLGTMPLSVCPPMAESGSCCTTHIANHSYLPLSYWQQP
Source text: (§2) This is true for most of the MBP fusions tested. Presumably the fusion protein is dimerized through intermolecular disulfide bonds between cysteine residues present in the peptide sequence.

G-CSFR [4] = target: T1, G-CSFR; experiment: Ba/F3 G-CSFR cell proliferation assay; assay type: cell-based; design: expression vectors encoding the full length human G-CSFR; expressed in transfected cells; host or cells: murine IL-3 dependent Ba/F3 cells; details: MBP fusion protein
Protocol: as §1, §2

G-CSF receptor [5] = target: T3, G-CSF receptor (Homo sapiens, UniProt Q99062); experiment: 125I-G-CSF competition binding assay of oxidized AF15846 fractions; details: HPLC fractions of oxidized AF15846; FIG. 4
T3 sequence (Q99062 25-836): T1 sequence (Q99062 25-836)
Source text: (§3) Several fractions containing oxidized AF15846 resulting from treatment under the conditions described above were collected subjected to testing in two assays: an ^125I-G-CSF competition binding assay and an ELISA format competitive G-CSF receptor-binding assay.

G-CSF receptor [6] = target: T3, G-CSF receptor; experiment: ELISA format competitive G-CSF receptor-binding assay; details: HPLC fractions of oxidized AF15846
Source text: as §3

[7] = Incubation of oxidized peptide at 37° C., HPLC pattern; assay type: physicochemical; details: pH 6.0 or pH 7.5, clean profiles only at pH 4.1
Protocol: The oxidized peptide was also reacted with N-ethylmaleimide (NEM) at 37° C. for 1 hour in 100 mM ammonium acetate, pH 4.1 to see if any free Cys residues remained in the molecule. If this were the case, treatment with the alkylating reagent would result in a shift of the HPLC retention time. Upon incubation with NEM, no such shift was seen (FIG. 7). In contrast, when the oxidized peptide was incubated with the disulfide specific reducing agent TCEP, also in ammonium acetate, a shift to a later retention time, consistent with reduced peptide, was found. The reduced peptide was modified with NEM to produce a peptide that eluted even later than the reduced form.
It was necessary to drop to pH 4.1 to obtain clean profiles upon NEM treatment.

G-CSFR [8] = target: T1, G-CSFR; design: made in house; details: read-out: observed affinity for its receptor; cited from earlier work

For `CC[C@H](C)[C@H](NC(=O)[C@H](CC(=O)O)NC(=O)[C@H](CC(C)C)NC(=O)[C@@H](N)CC(C)C)C(=O)N[C@@H](CS)C(=O)N[C@@H](CCC(=O)O)C(=O)N[C@@H](CC(C)C)C(=O)N[C@@H](CCCCN)C(=O)N[C@@H](CC(C)C)C(=O)N[C@@H](CCC(N)=O)C(=O)N[C@@H](CCC(=O)O)C(=O)N[C@@H](CS)C(=O)N[C@@H](C)C(=O)N[C@@H](CCCNC(=N)N)C(=O)N[C@@H](CCCNC(=N)N)C(=O)N[C@@H](CS)C(=O)N[C@@H](CC(N)=O)C(=O)O` [Example 53, LLDICELKLQECARRCN] (H-LLDICELKLQECARRCN-OH; N-terminus and C-terminus assumed), the “effect on G-CSF dose-response curve (luciferase)” value (G-CSFR [1]; Ba/F3/rhGCSF-R/pFos-lcf, FIGS. 10A, 10B, 11) was “dose-response curve shifting to higher concentrations” and the “effect on G-CSF response (luciferase)” value (G-CSFR [1]; increasing concentrations of peptide added before G-CSF, FIG. 3) was “G-CSFR antagonist”.

With EQSNSGWVWV-NH2 [Example 74] the “antagonist activity in cell-based assays” value (NFS-60 cells) was “antagonist activity at high concentrations” and the “stability in cell culture medium” value [2] was “no loss of activity was observed”.

With “MBP fusion protein of Example 78: Example 78 peptide fused to the carboxy-terminus of the maltose binding protein (MBP); monomeric and dimeric species ({MBP}-LLDICELKLQECARRCN; cysteine pairing not given here; also: monomeric and dimeric species)” the “proliferation in response to fusion protein” value (Parental Ba/F3 cells) was “did not proliferate”, the “proliferation in response to fusion protein” value [3] was “did not proliferate” and the “concentration of maximal activity in Ba/F3 G-CSFR cell proliferation assay” value (G-CSFR [4]) was 100 nM.

In the case of “Tris-oxidized species: active oxidized dimer of AF15846 formed in 50 mM Tris, pH 8 (LLDICELKLQECARRCN; also: homodimer of two chains joined by three parallel interchain disulfides, disulfide at 5, other end not in the chain, disulfide at 12, other end not in the chain, disulfide at 16, other end not in the chain)”, the “activity of fractions in 125I-G-CSF competition binding assay” value (G-CSF receptor [5]) is reported as “highest activity”, the “activity of fractions in ELISA format competitive G-CSF receptor-binding assay” value (G-CSF receptor [6]) is reported as “highest activity” and the “stability on incubation at higher pH” value [7] is reported as “disulfide scrambling and/or degradation”.

B1: Granulocyte-colony stimulating factor (protein)
chain: TPLGPASSLPQSFLLKCLEQVRKIQGDGAALQEKLCATYKLCHPEELVLLGHSLGIPWAPLSSCPSQALQLAGCLSQLHSGLFLYQGLLQALEGISPELGPTLDTLQLDVADFATTIWQQMEELGMAPALQPTQGAMPAFASAFQRRAGGVLVASHLQSFLEVSYRVLRHLAQP
For B1, the Kd (G-CSFR [8]) is listed as ~0.1 nM and the “luciferase response of reporter cells” value (G-CSFR [1]; ligand alone, FIG. 2) is listed as “dose dependent manner”.
